Experimental findings from PMC12221368, “Long AKAP18 isoforms anchor ubiquitin specific proteinases and coordinate calcium reuptake at the sarcoplasmic reticulum” (The Journal of Biological Chemistry, 2025) are described below.

One assay addresses GFP-AKAP18δ (UniProt Q6JP77 1-353). Kind of assay: cell-based or functional assay.
The next assay concerns the target GFP-AKAP18γ (UniProt Q9P0M2).

GFP-AKAP18γ, sequence (Q9P0M2 whole entry): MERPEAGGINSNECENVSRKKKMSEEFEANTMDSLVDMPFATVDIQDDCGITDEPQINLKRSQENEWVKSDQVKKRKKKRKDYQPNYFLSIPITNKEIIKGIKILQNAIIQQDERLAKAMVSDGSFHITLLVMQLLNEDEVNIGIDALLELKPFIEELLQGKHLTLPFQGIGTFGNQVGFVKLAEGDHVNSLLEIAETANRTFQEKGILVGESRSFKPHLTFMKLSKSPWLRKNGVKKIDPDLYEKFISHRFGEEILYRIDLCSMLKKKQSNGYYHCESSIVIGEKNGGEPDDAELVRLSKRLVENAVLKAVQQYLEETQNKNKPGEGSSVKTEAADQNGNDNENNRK
GFP-AKAP18δ, sequence (Q6JP77 whole entry, stated change not applied): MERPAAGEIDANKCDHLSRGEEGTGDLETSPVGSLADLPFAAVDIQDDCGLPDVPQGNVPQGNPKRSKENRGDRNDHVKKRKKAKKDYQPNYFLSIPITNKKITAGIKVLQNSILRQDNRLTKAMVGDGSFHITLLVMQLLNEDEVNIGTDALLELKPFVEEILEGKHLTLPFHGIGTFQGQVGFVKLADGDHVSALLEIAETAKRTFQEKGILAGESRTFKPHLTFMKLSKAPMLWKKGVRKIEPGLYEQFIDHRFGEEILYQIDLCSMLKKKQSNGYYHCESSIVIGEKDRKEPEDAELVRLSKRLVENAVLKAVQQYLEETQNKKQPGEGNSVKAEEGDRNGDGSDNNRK

B1: V5-tagged USP4 (enzyme, UniProt Q13107 1-963, looked up)
chain: MAEGGGCRERPDAETQKSELGPLMRTTLQRGAQWYLIDSRWFKQWKKYVGFDSWDMYNVGEHNLFPGPIDNSGLFSDPESQTLKEHLIDELDYVLVPTEAWNKLLNWYGCVEGQQPIVRKVVEHGLFVKHCKVEVYLLELKLCENSDPTNVLSCHFSKADTIATIEKEMRKLFNIPAERETRLWNKYMSNTYEQLSKLDNTVQDAGLYQGQVLVIEPQNEDGTWPRQTLQSKSSTAPSRNFTTSPKSSASPYSSVSASLIANGDSTSTCGMHSSGVSRGGSGFSASYNCQEPPSSHIQPGLCGLGNLGNTCFMNSALQCLSNTAPLTDYFLKDEYEAEINRDNPLGMKGEIAEAYAELIKQMWSGRDAHVAPRMFKTQVGRFAPQFSGYQQQDSQELLAFLLDGLHEDLNRVKKKPYLELKDANGRPDAVVAKEAWENHRLRNDSVIVDTFHGLFKSTLVCPECAKVSVTFDPFCYLTLPLPLKKDRVMEVFLVPADPHCRPTQYRVTVPLMGAVSDLCEALSRLSGIAAENMVVADVYNHRFHKIFQMDEGLNHIMPRDDIFVYEVCSTSVDGSECVTLPVYFRERKSRPSSTSSASALYGQPLLLSVPKHKLTLESLYQAVCDRISRYVKQPLPDEFGSSPLEPGACNGSRNSCEGEDEEEMEHQEEGKEQLSETEGSGEDEPGNDPSETTQKKIKGQPCPKRLFTFSLVNSYGTADINSLAADGKLLKLNSRSTLAMDWDSETRRLYYDEQESEAYEKHVSMLQPQKKKKTTVALRDCIELFTTMETLGEHDPWYCPNCKKHQQATKKFDLWSLPKILVVHLKRFSYNRYWRDKLDTVVEFPIRGLNMSEFVCNLSARPYVYDLIAVSNHYGAMGVGHYTAYAKNKLNGKWYYFDDSNVSLASEDQIVTKAAYVLFYQRRDDEFYKTPSLSSSGSSDGGTRPSSSQQGFGDDEACSMDTN
Consider B1, for which the results for the “deubiquitinase activity (Ub-AMC fluorescent assay) in GFP immune complexes, fold over IgG controls, n = 3” value with GFP-AKAP18δ and with GFP-AKAP18γ were 9.2 fold and 7.5 fold, respectively.
